This is an account of results in patent publication US20260125443A1 (APRILBIO, published 2026).

In assay [1] the target is T1, human serum albumin (human, UniProt P02768 25-609).
T1 construct: Immobilised on an AR2G biosensor; also called HSA; human serum albumin (Sigma)
The assay is described as follows: BLI (Octet Red), HSA immobilised on AR2G sensor, pH 6.0. As for the experimental part:
(§1) By using Bio-Layer Interferometry (BLI) and Octet® BLI systems (Octet® Red, Sartorius, Germany), the binding ability of the SAFA-FSH protein to human serum albumin was analyzed. On an AR2G biosensor chip (Sartorius, Germany), human serum albumin (Sigma) was immobilized at a concentration of 30 μg/mL with a 10 mM acetate buffer pH 5.0, and the SAFA-FSH protein was added thereto at concentrations of 6.25 nM, 3.125 nM, 1.56 nM, and 0.78 nM (association: 600 s, dissociation: 900 s), so as to confirm the binding ability between the two under conditions of pH 7.4 or pH 6.0 conditions.

The target in assay [2] is T1, human serum albumin. The experiment in a line: BLI (Octet Red), HSA immobilised on AR2G sensor, pH 7.4. As for the experimental part:
as §1
(In general: Biolayer interferometry detects binding as a change in optical thickness at a sensor tip.)

The target in assay [3] is T2, human follicle stimulating hormone receptor (human, UniProt P23945 18-695).
T2 construct: whole, on cells; also called human FSHR; human FSH receptor
T2 sequence (looked up): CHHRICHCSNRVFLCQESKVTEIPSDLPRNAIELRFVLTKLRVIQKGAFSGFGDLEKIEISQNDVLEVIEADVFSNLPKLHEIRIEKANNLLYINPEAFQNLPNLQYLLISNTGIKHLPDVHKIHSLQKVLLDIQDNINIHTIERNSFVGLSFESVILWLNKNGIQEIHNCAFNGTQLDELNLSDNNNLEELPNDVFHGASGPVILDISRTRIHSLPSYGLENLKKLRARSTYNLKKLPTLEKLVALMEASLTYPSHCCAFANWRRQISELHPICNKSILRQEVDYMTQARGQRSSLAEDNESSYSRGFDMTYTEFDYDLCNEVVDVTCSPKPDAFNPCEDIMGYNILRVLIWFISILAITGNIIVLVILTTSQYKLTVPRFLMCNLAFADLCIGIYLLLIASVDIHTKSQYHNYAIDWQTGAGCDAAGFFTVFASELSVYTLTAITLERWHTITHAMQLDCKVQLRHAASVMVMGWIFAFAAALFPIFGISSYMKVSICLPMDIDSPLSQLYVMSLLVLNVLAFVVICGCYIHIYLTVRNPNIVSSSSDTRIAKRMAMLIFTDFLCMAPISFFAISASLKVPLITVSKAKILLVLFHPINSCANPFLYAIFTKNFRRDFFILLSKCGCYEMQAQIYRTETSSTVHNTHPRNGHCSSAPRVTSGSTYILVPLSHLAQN
The assay is described as follows: flow cytometry on human FSHR stable HEK293 cells, detection with goat anti-human IgG Fd-FITC. As for the experimental part: By using a human FSHR stable cell line (HEK293, Creative Biogene, USA) expressing human FSH receptors on the surface, the binding between the SAFA-FSH protein and the FSH receptors was analyzed with a CytoFLEX flow cytometer (Beckman Coulter, USA).
Subsequently, the binding between the SAFA-FSH protein and the human FSHR was confirmed by using the human FSHR stable cell line in which the expression of human FSHR was confirmed. Specifically, the human FSHR stable cells were dissolved in MACS buffer (PBS containing 0.5% BSA and 2 mM EDTA) at a concentration of 1×10⁶ cells/ml, and then added in an amount of 100 μl (1.0×10⁵ cells/test) to a 1.7 ml tube. The cells were then centrifuged at 500×g at 4° C. for 5 minutes. After removing the supernatant from the 1.7 ml tube, 100 μl each of the SAFA-FSH protein and the SL335 fragment that were diluted with MACS buffer at a concentration from 1,000 nM to 0.064 nM was added to the same tube to proceed a reaction at 4° C. for 30 minutes. After 500 μl of MACS buffer was added to the tube and the cells were centrifuged at 500×g at 4° C. for 5 minutes, the supernatant was removed therefrom to remove unbound proteins. 100 μl of goat anti-human IgG Fd-FITC (Southern Biotech, USA) antibody diluted with MACS buffer at a ratio of 1:500 was added to the tube to proceed a reaction at 4° C. for 30 minutes. […]

T1 sequence (P02768 25-609 limits assumed): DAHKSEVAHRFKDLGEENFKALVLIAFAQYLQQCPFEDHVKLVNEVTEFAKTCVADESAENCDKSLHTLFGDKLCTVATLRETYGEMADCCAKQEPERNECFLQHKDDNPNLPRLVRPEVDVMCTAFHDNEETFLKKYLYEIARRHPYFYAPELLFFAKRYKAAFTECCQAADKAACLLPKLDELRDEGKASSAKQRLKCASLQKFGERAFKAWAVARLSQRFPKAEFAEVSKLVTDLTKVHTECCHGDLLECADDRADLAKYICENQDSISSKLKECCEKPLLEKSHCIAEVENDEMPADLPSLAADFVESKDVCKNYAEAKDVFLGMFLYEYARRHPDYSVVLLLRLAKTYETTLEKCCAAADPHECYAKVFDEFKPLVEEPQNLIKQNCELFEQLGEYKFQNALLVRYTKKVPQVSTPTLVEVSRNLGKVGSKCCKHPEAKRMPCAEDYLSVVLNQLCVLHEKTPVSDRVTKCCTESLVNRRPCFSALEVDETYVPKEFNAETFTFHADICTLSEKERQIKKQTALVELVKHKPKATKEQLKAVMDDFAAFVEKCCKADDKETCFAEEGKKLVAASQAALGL

B1: SAFA-FSH-B protein (other)
heavy: QVQLVQSGGGPVKPGGSLRLSCAASGFMFRAYSMNWVRQAPGKGLEWVSSISSSGRYIHYADSVKGRFTISRDNAKNSLYLQMNSLRAEDTAVYYCARETVMAGKALDYWGQGTLVTVSSASTKGPSVFPLAPSSKSTSEGTAALGCLVKDYFPEPVTVSWNSGALTSGVHTFPAVLQSSGLYSLSSVVTVPSSSLGTQTYICNVNHKPSNTKVDKKVEPKSSGGGGSGGGGSGGGGSNSCELTNITIAIEKEECRFCISINTTWCAGYCYTRDLVYKDPARPKIQKTCTFKELVYETVRVPGCAHHADSLYTYPVATQCHCGKCDSDSTDCTVRGLGPSYCSFGEMKE
light: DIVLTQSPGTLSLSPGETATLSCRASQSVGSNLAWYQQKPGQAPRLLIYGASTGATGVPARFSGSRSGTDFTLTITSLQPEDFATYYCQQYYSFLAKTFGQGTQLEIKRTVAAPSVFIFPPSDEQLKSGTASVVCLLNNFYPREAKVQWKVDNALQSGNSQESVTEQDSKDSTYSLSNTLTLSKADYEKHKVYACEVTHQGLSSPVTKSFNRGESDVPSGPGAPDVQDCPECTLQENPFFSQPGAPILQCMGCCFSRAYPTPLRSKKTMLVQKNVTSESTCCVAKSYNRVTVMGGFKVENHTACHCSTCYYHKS
notes: Anti-serum-albumin Fab SL335 with hFSH beta on the C-terminus of CH1 and hFSH alpha on the C-terminus of CL; also called SAFA-FSH protein; recombinant fusion protein
Regarding B1, in assay [1], the Kd (commonly the concentration at which binding is half-saturated) came to 0.313 nM; the koff – broadly, the rate constant with which the complex falls apart – stood at 0.000149 s⁻¹; the kon (commonly a measure of how fast the partners come together) turned out to be 475000 M⁻¹ s⁻¹. In assay [2], this molecule registered a Kd of 0.359 nM, a koff of 0.000136 s⁻¹ and a kon of 379000 M⁻¹ s⁻¹.

B2: SL335 fragment (Fab, V domains shown)
VH: QVQLVQSGGGPVKPGGSLRLSCAASGFMFRAYSMNWVRQAPGKGLEWVSSISSSGRYIHYADSVKGRFTISRDNAKNSLYLQMNSLRAEDTAVYYCARETVMAGKALDYWGQGTLVTVSS
VL: DIVLTQSPGTLSLSPGETATLSCRASQSVGSNLAWYQQKPGQAPRLLIYGASTGATGVPARFSGSRSGTDFTLTITSLQPEDFATYYCQQYYSFLAKTFGQGTQLEIKR
notes: Fab without FSH, used as the control in the FSHR flow cytometry assay; also called human anti-serum albumin Fab antibody fragment
In the case of B2, the binding result in assay [3] was “no binding (tested: 1000 nM)”.
